Assay results: patent US20190367615A1 (BEIJING HANMI PHARM, published 2019)

Tests used:
[1] = target: T1, Recombinant human PD-1 (Sino Biological Inc., Catalog Number 10377-H08H) (human, UniProt Q15116 25-167); experiment: ELISA, coated recombinant human PD-1 (1 ug/mL), detection with anti-mouse IgG-HRP, OD450nm
T1 construct: Bought protein; also called antigen PD-1
Protocol: (§1) The plate was washed five times with PBST. […] The plate was washed five times with PBST. […] The plate was washed five times with PBST. 100 μL/well of colorimetric substrate TMB was added and incubated at room temperature for 10 minutes. Color development was terminated by adding 100 μL/well of 1 M H₂SO₄. The absorbance at 450 nm was read on a microplate reader.

[2] = target: T2, Recombinant human PD-1-Fc (human, UniProt Q15116 25-167, limits assumed); experiment: competition ELISA, coated human PD-1-Fc, blocked ligand biotin-labeled PD-L1 (final 10 nM), streptavidin-HRP, OD450nm
T2 construct: also called recombinant human PD-1-Fc protein; not shown: Fc part
T2 sequence (Q15116 25-167 limits assumed): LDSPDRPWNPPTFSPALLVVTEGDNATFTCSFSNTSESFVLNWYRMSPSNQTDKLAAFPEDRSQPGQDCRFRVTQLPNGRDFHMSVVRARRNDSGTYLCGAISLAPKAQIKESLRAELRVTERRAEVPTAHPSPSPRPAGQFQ
Protocol: as §1

T1 sequence (Q15116 25-167 limits assumed): as above

EC50 [1]: 0.052 nM
IC50 [2]: 0.838 nM
B1: murine anti-human PD-1 monoclonal antibody secreted by Clone No. 2 (antibody, V domains shown)
VH: EVQLQESGGGLVKPGGSLKLSCAASGFTFSSYGMSWVRQTPEKRLEWVASISGGGRYTYYPDSMKGRFTISRDNAKNNLHLQMSSLRSEDTALYYCVYEYFYTMDYWGQGTSVTVSS
VL: DIVLTQSPATLSVTPGDSVSLSCRANQSISNNLHWYQQRSHESPRLLIRFASQSISGIPSRFSGSGSGTDFTLSINSVETEDFGMYFCQQSDNWPLTFGAGTKLEIK
notes: Hybridoma culture supernatant; Clone No. 2 is the only clone named, so the tie is implicit
